Results as given in the DeepSol protein solubility set.

Assay: soluble on expression in E. coli; label from the status in PepcDB or PDB records
For “MARMLTAADVEAAGGKLILAAGDRLTPLARDRARELGIVVEAAGLSSGVSTPSASPTSTSAPVVKSPLAAPAPAPVPAARPATPVAPPAATGSRPLALPPSGALYRRNALGPSAQSSRAVDGRPKAGVVGAGHVGAMTALRLAESDLFSEVALVDVVPGLAAGLALDMWHGAGLYGFSTRLSGSDDLVALAGAEYIVITAGKPRQPGMSRTDLTVVNAEIMTSVCRGIRTHAPNSTLVIVSNPLEEMTHLAAQQTGFPEERVLGMAGVLDSARFCALVGLTGKARPQEVRAVALGSHGPEMVIPLSQAFVGDRPIESMFDAETLKALVERARESGGEVVKLLQKGSAYFSPAESAVTMVRAMVRDSGEVIAACVRSRGAYGAVDTRVGLPVRLHRRGLKEIVPLTLRPAEQQALQDAAARIAARIAELPAPC”, the “soluble on expression in E. coli” value was “not soluble”. For “MARNPRTTVRRILNSAPRSLLIQSVTIVALDPTDNNHGSHQPGSNGPSNSSTQADNFETETTADEERQKEDGVEDELEDEETTGFIDEDGEIRYPVDEVGNYEIDQEAETDESFYLDTQRDSSLCDERSQLCRSLSDQNLRTTFFLITTTNSKAAILRYLHFHNVSQDSILRKLLLNDSHLTLVEVCNLCAQNIELCKCEDMQEKCQLIFGDLKKWLEVILNSFANIMMKTKTTILEGYNSSSPINKGIFKKKLLSEMADNEMWMHFESSFDGIKVHKNGNQNIWPYSLLNLDLEDVHRASPQALILAALFIGFKNPTTKIHDRLTQWILLQMDEHVFFSEGVAWKADLTCANHDDPARRIVYNQCGLRSSGSCNFCLNQETECKINDEYTTLRENLTGSCPSTMNDGLRQRNQHSHFHKHVLYMHLCPVTSNARMLPKRVHFSALFSKGKWNLFPSKSVDFSSTPSLPSRFRSLSGKASQCTGSEKALSIVVAAAFSGELGGVSSAIILSIHGLYRLCIEPQSITDETLHLKIEQISKSIEVLIVKRAPEMLNGIKVHQVLYHLARMTELYGSLFPLSTQWFEYFYHTIQRTLVPEIYNGLGMSIMRKMSALQEIKTEAAFRLHTNHQFRTEANLKMCYELGLLRRLKRISVVPTPPQYQQFCETGDVFLNVVYHDGIRYSNYCNKKTDDSNVTFIEYARVRFAKIIGMLLKENNTDLRFILKKYCNTNDHLIDISNKLYEEDVPQMHIQNWVDSVSKSSFGGRVTLTNTVVVVSADSIVGHAVVVKRNNNCVALPFSRRISLS”, the “soluble on expression in E. coli” value was “not soluble”. For “MARPETEPKTELAKRFREVRRILGFTERKQFAEHLGVTAGSIGTYETGVSEPTASALSKYQEICGVSLDWLVTGNGEMFTDMAKAKAAGFKPQAIPAGLMKRLGHLAYTTYHDAKITLPPEDVAELAAGLYGKLQELIHNINDMEEVEATLPLLKLHLKRQIEVEKAHRAIPGNTANSSD”, the “soluble on expression in E. coli” value was “not soluble”. For “MARRISEPAREIDIIHETDVLVVGSGPGGLPAALAAARAGAEVTLVERFGCFGGNLTVVGVEGMHWYRHEQTIESNGIAREFEEKAKEMGAAVPESQSLSHEIDSEGFKLVADRMVLDEPNIRPMLHRFFVAPLMEGDTIIGIVTESKSGREAILARRVIDATGDADVVTRAGAPVYKTPAEQMMAASVMFHLAGVDKQRFMDGIKADPQTYRDWGGGGEWNIETSGKEDDMFSPFLKKPFQQAIRDGLIPPHLNTIAGTWGAVHDTGELTYMNLIHLDGCDGTDPDSLTTYEIEGRRQTMLAIEALRRYTPGCENIRLRNFGMSIGIRDTRKVDCLYNMTETDVREQGRFEDSIGIFPEFIDGYGILILPTTGRYFQMPYRNLLPRGVKNLLVAGRITGGDRISHAATRNMACCAVTGQGAGIAAALSVKSNRPLDEIDPLLIQKELERQGGRHHLEHHHHHH”, the “soluble on expression in E. coli” value was “not soluble”. For “MARRNYQVERNKLEEKDPTWLMQKGQIQPLVSSLVVLNVEGERILARYTAKELFPTFDVEKKFEADLLKKSQTIPDLEENTGVFEHGQHIVVCRASEDLLFFVTSRIYENEVILSEVLTCWVDSLVKVLKNLPLNELNLLQHYEVLLLLVDELVDQEGVIMETDANELSSRTEFAMYSTDPRDLIPELTEQGFSHALQTAKQHLARTILK”, the “soluble on expression in E. coli” value was “not soluble”. For “MARTDIRPIVKLRSTAGTGYTYTTRKNRRNDPDRLILRKYDPILRRHVDFREER”, the “soluble on expression in E. coli” value was “soluble”. With “MARWERIVDGVKSIALMRKKIITRGKRIALFVDGPNILRKELGIHLEDIVEALSKLGNIRVAKVILNQYAPQSLIEAVSNQGFEPVIVAGEIGVKMAVEAMREVYNPNIDMIALATRNTEFVPIILKAKEKGKETAIIGVEHGLSSALKHAADYVIILKPRGEKIEERHHEDSEERREGGRGA” the “soluble on expression in E. coli” value was “not soluble”. In the case of “MASDMPLVQLPQRGERINVPLVQSRSEDQRLVTSARQTDKIDADDLVALANQLNSARQLVKGRACDRLKQIADQMEQLHMAARAVLEDAQRDEHLHNVPCNMEKQPGRIYHLYQKQGSMNKYFSMLAPNEWGYQEKKEEYLGSYRLEYDRSWTPVGEMDRKDEEVARLQQLLQREGPVALRGNPNF”, the “soluble on expression in E. coli” value is reported as “not soluble”. With “MASEIHMTGPMCLIENTNGRLMANPEALKILSAITQPMVVVAIVGLYRTGKSYLMNKLAGKKKGFSLGSTVQSHTKGIWMWCVPHPKKPGHILVLLDTEGLGDVEKGDNQNDSWIFALAVLLSSTFVYNSIGTINQQAMDQLYYVTELTHRIRSKSSPDENENEVEDSADFVSFFPDFVWTLRDFSLDLEADGQPLTPDEYLTYSLKLKKGTSQKDETFNLPRLCIRKFFPKKKCFVFDRPVHRRKLAQLEKLQDEELDPEFVQQVADFCSYIFSNSKTKTLSGGIQVNGPRLESLVLTYVNAISSGDLPCMENAVLALAQIENSAAVQKAIAHYEQQMGQKVQLPTESLQELLDLHRDSEREAIEVFIRSSFKDVDHLFQKELAAQLEKKRDDFCKQNQEASSDRCSGLLQVIFSPLEEEVKAGIYSKPGGYRLFVQKLQDLKKKYYEEPRKGIQAEEILQTYLKSKESMTDAILQTDQTLTEKEKEIEVERVKAESAQASAKMLHEMQRKNEQMMEQKERSYQEHLKQLTEKMENDRVQLLKEQERTLALKLQEQEQLLKEGFQKESRIMKNEIQDLQTKMRRRKACTIS” the “soluble on expression in E. coli” value was “soluble”. With “MASEKPLAAVTCTAPVNIAVIKYWGKRDEELVLPINSSLSVTLHQDQLKTTTTAVISKDFTEDRIWLNGREEDVGQPRLQACLREIRCLARKRRNSRDGDPLPSSLSCKVHVASVNNFPTAAGLASSAAGYACLAYTLARVYGVESDLSEVARRGSGSACRSLYGGFVEWQMGEQADGKDSIARQVAPESHWPELRVLILVVSAEKKLTGSTVGMRASVETSPLLRFRAESVVPARMAEMARCIRERDFPSFAQLTMKDSNQFHATCLDTFPPISYLNAISWRIIHLVHRFNAHHGDTKVAYTFDAGPNAVIFTLDDTVAEFVAAVWHGFPPGSNGDTFLKGLQVRPAPLSAELQAALAMEPTPGGVKYIIVTQVGPGPQILDDPCAHLLGPDGLPKPAA” the “soluble on expression in E. coli” value was “soluble”. For “MASGDFRLCDVVLDDSIGRSTPDVEHERAVAIFDLIEENTFEPAGHDGGPYRLHISLVDAKLVFAIKTEDDKDVSTHILSLTPFRRIIKDYFLICESYYEAIRSSTPSQIEAIDMGRRGIHNDGSQTLMDRLSGKIKVDFDTARRLFTLVCVLYWRG”, the “soluble on expression in E. coli” value was “not soluble”. With “MASKEAHVSLARGEQSVKRIKEFDPGKDSFSVLLLGIDAREKNGETVDQARSDANVLVTFNRKEKTAKMLSIPRDAYVNIPGHGYDKFTHAHAYGGVDLTVKTVEEMLDIPVDYVVESNFTAFEDVVNELNGVKVTVKSDKVIQQIKKDTKGKVVLQKGTHTLDGEEALAYVRTRKADSDLLRGQRQMEVLSAIIDKSKSLSSIPAYDDIVDTMGQNLKMNLSLKDAIGLFPFITSLKSVESIQLTGYDYEPAGVYYFKLNQQKLQEVKKELQNDLGVLEHHHHHH” the “soluble on expression in E. coli” value was “soluble”. In the case of “MASKLLQLKSKACEASKFVSKHGTTYYKQLLDKNKMYIQEPATIEKCNELSKQLLYTRLASIPGRSESFWKEVNHVKGLWKNRADLKVEDAGIAALFGLECFAWYCAGEIVGRGFTFTGYYP”, the “soluble on expression in E. coli” value is reported as “not soluble”. For “MASKTIIVMSDSHGDRDIVQAIKDKYLGQVDAIFHNGDSELNSSDPIWAGIYVVGGNCDYDTGYPDRLVTQLGTVTIAQTHGHLYHINFTWDKLDYFAQEVVADICLYGHLHRPAAWQVGQTLFMNPGSVTQPRGEINEKLYARVELTDTQIKVDYFTRDHKLYPSLSKEFKR”, the “soluble on expression in E. coli” value was “not soluble”. With “MASLEVSRSPRRSRRELEVRSPRQNKYSVLLPTYNERENLPLIVWLLVKSFSESGINYEIIIIDDGSPDGTRDVAEQLEKIYGSDRILLRPREKKLGLGTAYIHGMKHATGNYIIIMDADLSHHPKFIPEFIRKQKEGNFDIVSGTRYKGNGGVYGWDLKRKIISRGANFLTQILLRPGASDLTGSFRLYRKEVLEKLIEKCVSKGYVFQMEMIVRARQLNYTIGEVPISFVDRVYGESKLGGNEIVSFLKGLLTLFATT” the “soluble on expression in E. coli” value was “not soluble”. For “MASLSQTPPDLPLCRGDRVRMSPLGRERHPRYGTREGVIVGQGSPSSWRVKFDDRKTIQAIHQDYLERVPAQAARFDSSEIWNGWRNDPPATA”, the “soluble on expression in E. coli” value was “not soluble”. For “MASTFNPRECKLSKQEGQNYGFFLRIEKDTDGHLIRVIEEGSPAEKAGLLDGDRVLRINGVFVDKEEHAQVVELVRKSGNSVTLLVLDGDSYEKAVKNQVDLKELDQSQREAALNDKKPGPGMNGAVEPCAQPRLCYLVKEGNSFGFSLKTIQGKKGVYLTNIMPQGVAMKAGVLADDHLIEVNGENVENASHEEVVEKVTKSGSRIMFLLVDKETARCHSEQKTQFKRETASLKLLPHQPRVVVIKKGSNGYGFYLRAGPEQKGQIIKDIEPGSPAEAAGLKNNDLVVAVNGKSVEALDHDGVVEMIRKGGDQTTLLVLDKEAESIYSLARFSPLLYCQSQELPNGSVKEGPAPIPAPLEATGSEPTEDAEGHKPKLCRLLKEDDSYGFHLNAIRGQPGSFVKEVQQGGPADKAGLENEDVIIEVNGENVQEEPYDRVVERIKSSGKHVTLLVCGKMAYSYFQAKKIPIVSSMAEPLVAGPDEKGETSAESEHDAHPAKDRTLSTASHSSSNSEDTEM”, the “soluble on expression in E. coli” value was “soluble”. With “MASTIAFPAMVKELRLSKNLTMEQLAEEVGKTKSTISKWEKGTRSPKIYEIEEIAKFFGVEPKKMMFGDNPTPTAPQVELIPSTLQKINSTSSQLEHKRQLNVLDYAETQLEQQNTVEEPQATYYTYNYYDHAASAGTGQYLNDVQVETIELPVDYDADFVIPVYGDSMEPKYHSGDYVFVKLSVELTDGDIGVFEYYGDAYIKQLLINDKGAFLHSLNQCGDYPDIPIDRDSDFRIIGEVMGSYRER” the “soluble on expression in E. coli” value was “not soluble”. For “MASVALALWERVLANVVPRQSIAVIGAGVSGLSAAWLLSHRHDVTLYEADNRLGGHANTIIAEGVAVDTGFIVYNEPNYPNLTALFRHIGVETTETDMSFGVSLDGGALEYSSTKLLAQKRNVANPRFIKMLLDVVRFYREGRNIPADLEQGGLCRLDDYLRRQGFGRAFQEDHLLPQAAAIWSASMRDIREFPAAALLRFFDNHGLMLPIDKRPIWRTVVGGSARYVEKLAAGVSGPILTGRPVKAIHRGPDGVRIEDATGETRAFDHVVIGAHADQALSMLAAPSAEERELLGAFRYSRNRAVLHSDPALMPRRRGAWASWNHVGRRGEDGEGGVTYWMNILQPLGVERPYFLSLNPMQDPAGLMHDQVYEHPLFDGPAMLAQRRLWSLQGRRRTWFCGAYFGSGFHEDGLQAGLAVAEQLGGVRRPWLVPNPSGRIVLDVADQAADRELVALEHHHHHH”, the “soluble on expression in E. coli” value was “not soluble”. For “MASVHGITVKNAQGEDTPLSNYQGKVLIIVNVASQCGLTNSNYNQFKELLDVYKKDGLEVLAFPCNQFGGQEPSCEIDIAAFVADKFKFEPTLFQKIDVNGDNTAPLYKFLKQEKGGFLVDAIKWNFTKFLVGRDGHVIKRFSPTTEPKDMKKDIEAALQAKL”, the “soluble on expression in E. coli” value was “not soluble”.
